We go through 125 sequences from the supplement of paper PMC9112550, “Optimization of the antimicrobial peptide Bac7 by deep mutational scanning” (BMC Biology, 2022).

This data set concerns Escherichia coli TOP10. Kind of data set: shrunken log2 fold change of peptide-encoding DNA abundance (4.5 h post-induction vs induction); higher = less antimicrobial activity (less host growth inhibition). The conditions noted are these: time post-induction: 4.5 h; library: site-saturation at positions 5, 18, 19, 20.
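Note: peptides expressed intracellularly from a pBAD plasmid library in pooled LB shake-flask culture, induced with 0.3% L-arabinose, DNA abundance read by NGS, three biological replicates, DESeq2 with apeglm shrinkage.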

Turning to RRIRQRPPRLPRPRPRPYAVPRP, the “shrunken log2 fold change” value was -0.00389.
Next, RRIRCRPPRLPRPRPRPMRIPRP: 0.497; RRIRTRPPRLPRPRPRPSWSPRP: -0.196; RRIRLRPPRLPRPRPRPGIRPRP: 0.0174.
With RRIRERPPRLPRPRPRPLKLPRP, the “shrunken log2 fold change” value is -0.118.
Turning to RRIRTRPPRLPRPRPRPNYNPRP, the “shrunken log2 fold change” value is -0.831.
Next, RRIRNRPPRLPRPRPRPWQFPRP: -0.0175; RRIRSRPPRLPRPRPRPSNLPRP: -0.193; RRIRYRPPRLPRPRPRPSQQPRP: 0.102.
Next, RRIRSRPPRLPRPRPRPKEFPRP: -0.216.
For the sequence RRIRWRPPRLPRPRPRPWCQPRP, the “shrunken log2 fold change” value stood at 0.121.
For RRIRVRPPRLPRPRPRPINKPRP, the “shrunken log2 fold change” value is -0.613.
Next, RRIRIRPPRLPRPRPRPLWCPRP: -0.067.
For RRIRNRPPRLPRPRPRPARQPRP, the “shrunken log2 fold change” value is 0.304.
Next, RRIRVRPPRLPRPRPRPVIPPRP: -0.0964.
Turning to RRIRFRPPRLPRPRPRPPHMPRP, the “shrunken log2 fold change” value is -0.137.
As to RRIRGRPPRLPRPRPRPQCKPRP, the “shrunken log2 fold change” value came out at 0.165.
Next, RRIRCRPPRLPRPRPRPTIVPRP: -0.0931.
As to RRIRDRPPRLPRPRPRPDSVPRP, the “shrunken log2 fold change” value is -0.0148.
Then RRIRTRPPRLPRPRPRPPTHPRP, with 0.176; and RRIRPRPPRLPRPRPRPYDHPRP, with -0.0209; and RRIRYRPPRLPRPRPRPLMSPRP, with -0.0164.
In the case of RRIRDRPPRLPRPRPRPRWAPRP, the “shrunken log2 fold change” value turned out to be 0.0236.
As to RRIRKRPPRLPRPRPRPTTDPRP, the “shrunken log2 fold change” value was 0.385.
Next, RRIRRRPPRLPRPRPRPPISPRP: 0.0255; RRIRERPPRLPRPRPRPAEFPRP: 0.00307; RRIRERPPRLPRPRPRPKGEPRP: 0.0173.
Next, RRIRIRPPRLPRPRPRPLAPPRP: 0.157.
As for RRIRERPPRLPRPRPRPHIPPRP, the “shrunken log2 fold change” value was -0.682.
RRIRRRPPRLPRPRPRPSGFPRP: the “shrunken log2 fold change” value was 0.0452.
Then RRIRVRPPRLPRPRPRPSPSPRP, with -0.017; and RRIRWRPPRLPRPRPRPYNCPRP, with -0.331.
Then RRIRHRPPRLPRPRPRPVNVPRP, with 0.0798; and RRIRIRPPRLPRPRPRPWDDPRP, with -0.391; and RRIRYRPPRLPRPRPRPLPHPRP, with -0.375.
Next, RRIRVRPPRLPRPRPRPMAAPRP: 0.287; RRIRSRPPRLPRPRPRPLRSPRP: 0.747; RRIRNRPPRLPRPRPRPSHWPRP: -0.17.
As for RRIRWRPPRLPRPRPRPWDHPRP, the “shrunken log2 fold change” value was -0.0185.
Next, RRIRSRPPRLPRPRPRPHVSPRP: -0.0482; RRIRRRPPRLPRPRPRPSPYPRP: 0.0987; RRIRSRPPRLPRPRPRPPQFPRP: -0.103.
Next, RRIRSRPPRLPRPRPRPNSMPRP: -0.215; RRIRGRPPRLPRPRPRPKVAPRP: 0.538; RRIRVRPPRLPRPRPRPWEQPRP: -0.355.
Next, RRIRQRPPRLPRPRPRPIGHPRP: -0.281.
Regarding RRIRYRPPRLPRPRPRPFLGPRP, the “shrunken log2 fold change” value is -0.0439.
Then RRIRIRPPRLPRPRPRPRVCPRP, with 0.00058.
Then RRIRCRPPRLPRPRPRPPKIPRP, with 0.277; and RRIRLRPPRLPRPRPRPEEEPRP, with -0.00112; and RRIRFRPPRLPRPRPRPRQRPRP, with 0.346.
As to RRIRWRPPRLPRPRPRPWPTPRP, the “shrunken log2 fold change” value is 0.336.
Consider RRIRARPPRLPRPRPRPMRSPRP, for which the “shrunken log2 fold change” value amounted to 0.0669.
With RRIRIRPPRLPRPRPRPYQSPRP, the “shrunken log2 fold change” value is -0.0409.
Next, RRIRKRPPRLPRPRPRPQTLPRP: 0.0931; RRIRKRPPRLPRPRPRPLVNPRP: -0.0445; RRIRRRPPRLPRPRPRPIDVPRP: -0.00284.
With RRIRSRPPRLPRPRPRPTNAPRP, the “shrunken log2 fold change” value is -0.0746.
Then RRIRMRPPRLPRPRPRPMRWPRP, with 0.539; and RRIRGRPPRLPRPRPRPKLLPRP, with 0.84; and RRIRARPPRLPRPRPRPKNMPRP, with -0.191.
Next, RRIRWRPPRLPRPRPRPFSWPRP: 0.0632.
For RRIRLRPPRLPRPRPRPETFPRP, the “shrunken log2 fold change” value was found to be 0.0211.
For the sequence RRIRWRPPRLPRPRPRPSKMPRP, the “shrunken log2 fold change” value was -0.0978.
Regarding RRIRPRPPRLPRPRPRPDNWPRP, the “shrunken log2 fold change” value was -0.121.
Next, RRIRLRPPRLPRPRPRPNSHPRP: -0.404; RRIRHRPPRLPRPRPRPNTNPRP: -0.74.
RRIRWRPPRLPRPRPRPWMGPRP: the “shrunken log2 fold change” value was determined as 0.0275.
Then RRIRYRPPRLPRPRPRPFFVPRP, with -0.689; and RRIRHRPPRLPRPRPRPTNFPRP, with -0.398.
For RRIRDRPPRLPRPRPRPKFTPRP, the “shrunken log2 fold change” value was -0.0602.
As for RRIRHRPPRLPRPRPRPVPGPRP, the “shrunken log2 fold change” value is -0.163.
For RRIRKRPPRLPRPRPRPVPTPRP, the “shrunken log2 fold change” value worked out at 0.916.
With RRIRVRPPRLPRPRPRPKLHPRP, the “shrunken log2 fold change” value was -0.237.
Then RRIRHRPPRLPRPRPRPGKMPRP, with -0.423.
Consider RRIRFRPPRLPRPRPRPLVRPRP, for which the “shrunken log2 fold change” value was -0.102.
Next, RRIRRRPPRLPRPRPRPVSVPRP: 0.308; RRIRWRPPRLPRPRPRPPERPRP: 0.816; RRIRWRPPRLPRPRPRPTRYPRP: -0.104.
In the case of RRIRTRPPRLPRPRPRPLIHPRP, the “shrunken log2 fold change” value was -0.552.
For the sequence RRIRHRPPRLPRPRPRPYFNPRP, the “shrunken log2 fold change” value was -0.882.
Next, RRIRFRPPRLPRPRPRPAFMPRP: -0.164; RRIRQRPPRLPRPRPRPGKQPRP: -0.117.
Take RRIRERPPRLPRPRPRPQYGPRP: the “shrunken log2 fold change” value is -0.0797.
Next, RRIRSRPPRLPRPRPRPLTYPRP: -0.132; RRIRRRPPRLPRPRPRPEYSPRP: -0.265.
With RRIRIRPPRLPRPRPRPGQRPRP, the “shrunken log2 fold change” value is -0.0709.
Consider RRIRLRPPRLPRPRPRPIVIPRP, for which the “shrunken log2 fold change” value is -1.37.
With RRIRIRPPRLPRPRPRPAATPRP, the “shrunken log2 fold change” value is 0.0455.
Then RRIRQRPPRLPRPRPRPKEYPRP, with 0.0124; and RRIRCRPPRLPRPRPRPRTIPRP, with -0.154; and RRIRHRPPRLPRPRPRPCHPPRP, with -0.01.
Then RRIRNRPPRLPRPRPRPTSYPRP, with 0.00322; and RRIRSRPPRLPRPRPRPDQMPRP, with 0.049; and RRIRRRPPRLPRPRPRPHTVPRP, with 0.0423.
Next, RRIRSRPPRLPRPRPRPQNLPRP: -0.394; RRIRQRPPRLPRPRPRPFGVPRP: 0.0831.
Take RRIRFRPPRLPRPRPRPQKWPRP: the “shrunken log2 fold change” value was -0.0281.
Consider RRIRTRPPRLPRPRPRPNQEPRP, for which the “shrunken log2 fold change” value was found to be 0.0313.
Next, RRIRGRPPRLPRPRPRPVYKPRP: 0.0688; RRIRVRPPRLPRPRPRPGDRPRP: 0.365.
In the case of RRIRPRPPRLPRPRPRPHDRPRP, the “shrunken log2 fold change” value was -0.0974.
As to RRIRQRPPRLPRPRPRPRALPRP, the “shrunken log2 fold change” value came out at 0.125.
For the sequence RRIRVRPPRLPRPRPRPILQPRP, the “shrunken log2 fold change” value is -0.399.
For RRIRRRPPRLPRPRPRPSELPRP, the “shrunken log2 fold change” value came out at 0.0695.
In the case of RRIRQRPPRLPRPRPRPTHAPRP, the “shrunken log2 fold change” value worked out at 0.437.
Regarding RRIRRRPPRLPRPRPRPKGLPRP, the “shrunken log2 fold change” value was 0.238.
Next, RRIRFRPPRLPRPRPRPRCHPRP: -0.0965.
On to RRIRCRPPRLPRPRPRPCQHPRP, for which the “shrunken log2 fold change” value is -0.161.
RRIRVRPPRLPRPRPRPNYPPRP: the “shrunken log2 fold change” value is -0.515.
Regarding RRIRQRPPRLPRPRPRPGVFPRP, the “shrunken log2 fold change” value came to 0.0582.
RRIRMRPPRLPRPRPRPKLKPRP: the “shrunken log2 fold change” value is 2.65.
Then RRIRTRPPRLPRPRPRPRKRPRP, with 0.152.
For RRIRARPPRLPRPRPRPHDKPRP, the “shrunken log2 fold change” value is -0.0542.
Next, RRIRYRPPRLPRPRPRPTSAPRP: 0.0113.
Regarding RRIRSRPPRLPRPRPRPEERPRP, the “shrunken log2 fold change” value was 0.826.
Then RRIRNRPPRLPRPRPRPEYVPRP, with -0.05; and RRIRYRPPRLPRPRPRPWLKPRP, with -0.0198.
Consider RRIRMRPPRLPRPRPRPHTSPRP, for which the “shrunken log2 fold change” value stood at 0.242.
As to RRIRSRPPRLPRPRPRPVAYPRP, the “shrunken log2 fold change” value was -0.0936.
For RRIRPRPPRLPRPRPRPEINPRP, the “shrunken log2 fold change” value is -0.264.
For RRIRERPPRLPRPRPRPVEVPRP, the “shrunken log2 fold change” value is -0.209.
Next, RRIRHRPPRLPRPRPRPPCAPRP: 0.228; RRIRLRPPRLPRPRPRPNGAPRP: 0.0311.
Turning to RRIRDRPPRLPRPRPRPHGGPRP, the “shrunken log2 fold change” value came to 0.0317.
